Results on 6 molecules are retold here after patent US20060270591A1, “Androgen receptor coregulators” (priority 2002, published 2006).

Assay type in all cases: cell-based, human
In assay [1] the test system is AR. Kind of assay: AR transactivation reporter assay (CAT/luciferase) (Example 3). As to conditions: for effect of ARA70N construct on AR transactivation: COS-1 cells, 10 nM T, MMTV-LUC. As for the experimental part:
21. […] Further adding GAL-DBD (lane 1 and 2) or GAL-DBD-ARA70N with wild type (lane 3 and 4) or mutant (lane 5-8) FXXLF motifs to the cells. (B) Effect of wild type and mutant FXXLF motifs ARA70N on AR transactivation in COS-1 cells. […] 0.5 ng SV40-Renila Luciferase was used as an internal control. Relative luciferase activity was calculated by dual luciferase system.
411. Human prostate cancer DU145 and PC-3 cells were maintained in Dulbecco's Minimum Essential Medium (DMEM) containing penicillin (25 U/ml), streptomycin (25 μg/ml), and 5% fetal calf serum (FCS). Human LNCaP cells were maintained in RPMI containing penicillin (25 U/ml), streptomycin (25 μg/ml), and 10% FCS. Transfections were performed using the calcium phosphate precipitation method, as previously described (Dynlacht et al. (1991) Cell 66, 563-576). Briefly, 4×10^5 cells were plated on 60-mm dishes 24 hours before transfection, and the medium was changed to DMEM with 5% charcoal-dextran stripped FCS (CS-FBS) one hour before transfection. Transfection medium contained a constant amount of reporter plasmid and indicated amounts of pSG5-receptor, ARA70, or pCMX-GAL fusion construct using pSG5 as a carrier to provide equal amounts of transfected DNA. […] After another 24 hours, the cells were harvested for chloramphenicol transferase (CAT) or luciferase assays. At least three independent experiments were carried out in each case. Superfect (Qiagen) was used for transfection in LNCaP cells. The transfection conditions followed the manufacturer's protocol. Cell extracts were prepared and assayed for CAT or luciferase activity (Promega) and normalized against β-galactosidase or Renilla luciferase activity as indicated. All data were the mean±SD results from three to six independent experiments.
Target sequence in this assay (P10275 whole entry, the tested form may be a part): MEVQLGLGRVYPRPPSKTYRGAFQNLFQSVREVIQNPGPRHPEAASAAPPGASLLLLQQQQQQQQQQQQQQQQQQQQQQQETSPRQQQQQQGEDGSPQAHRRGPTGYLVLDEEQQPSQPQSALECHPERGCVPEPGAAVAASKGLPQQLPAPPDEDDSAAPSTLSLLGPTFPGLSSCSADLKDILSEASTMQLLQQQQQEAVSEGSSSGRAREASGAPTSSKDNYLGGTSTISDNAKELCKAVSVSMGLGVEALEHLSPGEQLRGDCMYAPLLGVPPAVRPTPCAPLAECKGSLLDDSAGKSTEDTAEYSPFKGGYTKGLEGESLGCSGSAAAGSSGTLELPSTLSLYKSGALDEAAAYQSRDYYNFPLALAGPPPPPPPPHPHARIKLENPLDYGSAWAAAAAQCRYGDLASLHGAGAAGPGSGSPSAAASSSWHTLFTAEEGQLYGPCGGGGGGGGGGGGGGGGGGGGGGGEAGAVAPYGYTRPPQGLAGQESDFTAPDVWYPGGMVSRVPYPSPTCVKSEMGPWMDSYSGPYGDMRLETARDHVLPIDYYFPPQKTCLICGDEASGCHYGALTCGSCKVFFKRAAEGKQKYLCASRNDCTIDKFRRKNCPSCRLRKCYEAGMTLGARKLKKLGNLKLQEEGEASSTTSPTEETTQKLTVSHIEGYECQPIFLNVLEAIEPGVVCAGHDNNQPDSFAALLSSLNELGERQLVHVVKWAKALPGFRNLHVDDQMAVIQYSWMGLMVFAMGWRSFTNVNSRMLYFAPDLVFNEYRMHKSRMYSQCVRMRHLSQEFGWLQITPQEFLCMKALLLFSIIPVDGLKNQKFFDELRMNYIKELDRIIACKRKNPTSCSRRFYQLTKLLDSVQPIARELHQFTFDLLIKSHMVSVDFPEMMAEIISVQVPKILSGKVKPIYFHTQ
Background: Reporter assays use an easily measured gene product as a stand-in for the process of interest.

In the next assay the test system is PSA. In words: PSA northern and western blot in LNCaP cells (Example 3). The note with it: 1 nM DHT. From the text: 20. […] (A) ARA70-N2 can serve as a dominant-negative to inhibit coregulator enhanced AR activity in DU145 cells. The pCMV-β-gal construct was used as an internal control, and the relative CAT activity was normalized by the β-gal activity. Data represent the mean±S.D. of four independent experiments. (B) ARA70-N2 can serve as a dominant-negative repressor to compete with the function of endogenous coregulators and inhibit AR transactivation in LNCaP cells. (C) ARA70-N2 can serve as a dominant-negative repressor to inhibit the expression of PSA mRNA in LNCaP cells. Human prostate cancer LNCaP cells were transfected with 4 and 8 μg of ARA70-N2 for 3 hours. […] The blot containing 20 μg total RNA in each lane was hybridized with a PSA specific cDNA probe. […] (D) ARA70-N2 can inhibit PSA protein expression in a dominant-negative manner. 4×10^6 LNCaP cells were plated on 100-mm dishes 24 hours before transfection. […] The blot containing 70 μg total cell lysate in each lane was hybridized with a PSA specific antibody. The same membrane was hybridized with a specific antibody for β-actin for equal protein loading.
A general note: Immunoblotting shows a protein as a band on a membrane.

Assay [2] concerns AR. In words: AR transactivation assay, MMTV-CAT reporter, transient transfection (Example 1). The note with it: for AR transcription activity with cotransfected coactivator: wild type AR. The method, then: Human prostate cancer DU145 or PC3 cells, or human lung carcinoma cells NCI H1299 were grown in Dulbecco's minimal essential medium (DMEM) containing penicillin (25 U/ml), streptomycin (25˜g/ml), and 5% fetal calf serum (FCS). One hour before transfection, the medium was changed to DMEM with 5% charcoal-stripped FCS. […] A β-galactosidase expression plasmid, pCMV-β-gal, was used as an internal control for transfection efficiency.
The medium was changed 24 hr posttransfection and the cells treated with either steroid hormones or hydroxyflutamide, and cultured for an additional 24 hr. Cells were harvested and assayed for CAT activity after the cell lysates were normalized by using β-galactosidaseas an internal control. Chloramphenicol acetyltransferase (CA) activity was visualized by PhosphorImager (Molecular Dynamics) and quantitated by ImageQuant software (Molecular Dynamics).

Assay [3] has as its system AR. Kind of assay: Mammalian two-hybrid CAT assay, interaction with AR in DU145 cells (Example 1). An excerpt:
368. The mammalian two-hybrid system employed was essentially the protocol of Clontech (California), with the following modifications. In order to obtain better expression, the GAL4 DBD (a.a. 1-147) was fused to pSGS under the control of an SV40 promoter, and named pGALO.
369. The hinge and LBD of wtAR were then inserted into pGALO. Similarly, the VPI6 activation domain was fused to pCMX under the control of a CMV promoter, and designated pCMX-VP16 (provided by Dr. R. M. Evan).
Target sequence in this assay (P10275 669-900 limits assumed): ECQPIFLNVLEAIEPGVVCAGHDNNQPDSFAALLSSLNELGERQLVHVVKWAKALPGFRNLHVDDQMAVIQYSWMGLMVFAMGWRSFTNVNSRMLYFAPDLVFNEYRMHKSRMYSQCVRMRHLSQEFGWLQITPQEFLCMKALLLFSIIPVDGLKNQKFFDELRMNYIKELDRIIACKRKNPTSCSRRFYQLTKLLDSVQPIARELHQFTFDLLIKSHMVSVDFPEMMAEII

B1: ARA70-N2: ARA70 region between amino acids 176-401, dominant-negative repressor (protein, UniProt Q13772 176-401, looked up, fragment)
chain: GPFLEKRGCISMPEQKSASGIVAVPFSEWLLGSKPASGYQAPYIPSTDPQDWLTQKQTLENSQTSSRACNFFNNVGGNLKGLENWLLKSEKSSYQKCNSHSTTSSFSIEMEKVGDQELPDQDEMDLSDWLVTPQESHKLRKPENGSRETSEKFKLLFQSYNVNDWLVKTDSCTNCQGNQPKGVEIENLGNLKCLNDHLEAKKPLSTPSMVTEDWLVQNHQDPCKVE
For B1, the “effect on ARA70N-enhanced AR transactivation” value with AR [1] (DU145 cells) is recorded as “inhibit ARA70N-enhanced AR transactivation”. Besides, in the assay on PSA, the “effect on PSA mRNA and protein expression” value is on record as “repressed PSA mRNA”.

B2: Rb: retinoblastoma protein (protein, UniProt P06400 2-928, looked up)
Retinoblastoma-associated …: PPKTPRKTAATAAAAAAEPPAPPPPPPPEEDPEQDSGPEDLPLVRLEFEETEEPDFTALCQKLKIPDHVRERAWLTWEKVSSVDGVLGGYIQKKKELWGICIFIAAVDLDEMSFTFTELQKNIEISVHKFFNLLKEIDTSTKVDNAMSRLLKKYDVLFALFSKLERTCELIYLTQPSSSISTEINSALVLKVSWITFLLAKGEVLQMEDDLVISFQLMLCVLDYFIKLSPPMLLKEPYKTAVIPINGSPRTPRRGQNRSARIAKQLENDTRIIEVLCKEHECNIDEVKNVYFKNFIPFMNSLGLVTSNGLPEVENLSKRYEEIYLKNKDLDARLFLDHDKTLQTDSIDSFETQRTPRKSNLDEEVNVIPPHTPVRTVMNTIQQLMMILNSASDQPSENLISYFNNCTVNPKESILKRVKDIGYIFKEKFAKAVGQGCVEIGSQRYKLGVRLYYRVMESMLKSEEERLSIQNFSKLLNDNIFHMSLLACALEVVMATYSRSTSQNLDSGTDLSFPWILNVLNLKAFDFYKVIESFIKAEGNLTREMIKHLERCEHRIMESLAWLSDSPLFDLIKQSKDREGPTDHLESACPLNLPLQNNHTAADMYLSPVRSPKKKGSTTRVNSTANAETQATSAFQTQKPLKSTSLSLFYKKVYRLAYLRLNTLCERLLSEHPELEHIIWTLFQHTLQNEYELMRDRHLDQIMMCSMYGICKVKNIDLKFKIIVTAYKDLPHAVQETFKRVLIKEEEYDSIIVFYNSVFMQRLKTNILQYASTRPPTLSPIPHIPRSPYKFPSSPLRIPGGNIYISPLKSPYKISEGLPTPTKMTPRSRILVSIGESFGTSEKFQKINQMVCNSDRVLKRSAEGSNPPKPLKKLRFDIEGSDEADGSKHLPGESKFQQKLAEMTSTRTRMQKQKMNDSMDTSNKEEK
Regarding B2, the “AR transcription activity with cotransfected coactivator” value was determined as 21 fold in the assay on AR [2] (DU145 cells, 1 nM DHT) and 12 fold with AR [2] (DU145 cells, 10 nM E2). Besides, the “induced CAT activity in mammalian two-hybrid assay” value with AR [3] stood at 3 fold.

B3: ARA55: AR coactivator, 444 aa polypeptide with high homology to mouse hic5 (protein)
chain: ANFNQSGNIADSSLSFTFTNSSNGPNLITTQTNSQALSQPIASSNVHDNFMNNEITASKIDDGNNSKPLSPGWTDQTAYNAFGITTGMFNTTTMDDVYNYLFDDEDTPPNPKKEMPRSGAPKERPAEPLTPPPSYGHQPTGQSGESSGASGDKDHLYSTVCKPRSPKPAAPAAPPFSSSSGVLGTGLCELDRLLQELNATQFNITDEIMSQFPSSKVASGEQKEDQSEDKKRPSLPSSPSPGLPKASATSATLELDRLMASLPDFRVQNHLPASGPTQPPVVSSTNEGSPSPPEPTAKGSLDTMLGLLQSDLSRRGVPTQAKGLCGSCNKPIAGQVVTALGRAWHPEHFVCGGCSTALGGSSFFEKDGAPFCPECYFERFSPRCGFCNQPIRHKMVTALGTHWHPEHFCCVSCGEPFGDEGFHEREGRPYCRRDFLQLFAPRCQGCQGPILDNYISALSLLWHPDCFVCRECFAPFSGGSFFEHEGRPLCENHFHARRGSLCPTCGLPVTGRCVSALGRRFHPDHFACTFCLRPLTKGSFQERAGKPYCQPCFLKLFG
Consider B3, for which the “enhancement of transactivation of wtAR, mARt877s and mARe708k” value with AR [2] (DHT 10^−11 to 10^−8 M, all three receptors) was 4-8 fold. In the assay with AR [2] (DU145 cells, 10 nM DHT, AR:ARA55 up to 1:4.5), the “further increase of the DHT induction” value came to 5.3 fold. Moreover, the “AR transcription activity with coactivator” value in the assay on AR [2] (DU145 cells, 10 nM DHT, with ARA55) is 22.8 fold. Moreover, the “increase of AR transcription activity upon transfection with exogenous ARA55” value in the assay with AR [2] (PC3 cells) amounted to 4 fold.

B4: ARA55251-444: C-terminus of ARA55 (a.a. 251-444 of SEQ ID NO:4) (protein)
chain: EKDGAPFCPECYFERFSPRCGFCNQPIRHKMVTALGTHWHPEHFCCVSCGEPFGDEGFHEREGRPYCRRDFLQLFAPRCQGCQGPILDNYISALSLLWHPDCFVCRECFAPFSGGSFFEHEGRPLCENHFHARRGSLCPTCGLPVTGRCVSALGRRFHPDHFACTFCLRPLTKGSFQERAGKPYCQPCFLKLFG
modifications: Homo sapien
For the molecule B4, the “effect on AR transcription activity” value with AR [2] (PC3 cells, endogenous ARA55, 10 nM DHT) is listed as “dramatically reduced AR transcription activity”.

B5: pSG5-ARA70N-AXXLF: ARA70N with FXXLF motif mutated to AXXLF (protein)
chain: MNTFQDQSGSSSNREPLLRCSDARRDLELAIGGVLRAEQQIKDNLREVKAQIHSCISRHLECLRSREVWLYEQVDLIYQLKEETLQQQAQQLYSLLGQFNCLTHQLECTQNKDLANQVSVCLERLGSLTLKPEDSTVLLFEADTITLRQTITTFGSLKTIQIPEHLMAHASSANIGPFLEKRGCISMPEQKSASGIVAVPFSEWLLGSKPASGYQAPYIPSTDPQDWLTQKQTLENSQTSSRACNFFNNVGGNLKGLENWLLKSEKSSYQKCNSHSTTSSFSIEMEKVGDQELPDQDEMDLSDWLVTPQESHKLRKPENGSRETSEKFKLLFQSYNVNDWLVKTDSCTNCQGNQPKGVEIENLGNLKCLNDHLEAKKPLSTPSMVTEDWLVQNHQDPCKVE
Turning to B5, the “effect of ARA70N construct on AR transactivation” value with AR [1] was “marginal induction effect”.

B6: pSG5-ARA70N-FXXAA: ARA70N with FXXLF motif mutated to FXXAA (protein)
chain: B5 chain
B6: the “effect of ARA70N construct on AR transactivation” value with AR [1] is given as “marginal induction effect”.
